Experimental data as given in patent publication US20190330277A1.

How the values were obtained:
Assay in all cases: ELISA, variant from culture supernatant on Ni-NTA plate
391-2wt_F-SC_12R core = molecular target: 391-2wt_F-SC_12R core
[1] = molecular target: RB94 site 0 hRSV bovSurf DS-Cav1-BZGJ9 Long FdPL
[2] = molecular target: sc9-10_DS-CAV1_bRSV(RB94)_Fd_fp2_ig1
[3] = molecular target: RB94 sc9 DS-CAV1 A149C-Y458C L373R Long K226L
[4] = molecular target: 391-2 hu/bov-DS-Cav1-BZGJ9 Long
[5] = molecular target: 391-2-DS-Cav1_ I28C-G464C
[6] = molecular target: 391-2-DS-Cav1-sc9 99C-362C
[7] = molecular target: 391-2-DS-Cav1-sc9 100C-362C
[8] = molecular target: sc9-10_DS-CAV1_bRSV(RB94)_Fd_hp1_ig1
[9] = molecular target: RB94 sc9 DS-CAV1 N183GC-N428C L373R Long
[10] = molecular target: 391-2-DS-Cav1-sc9deleteFS 100C-362C
[11] = molecular target: 391-2-DS-Cav1-sc9deleteFS 100C-361C
[12] = molecular target: sc9-10_DS-CAV1_bRSV(RB94)_Fd_hp1_fp2_ig1
[13] = molecular target: 391-2-DS-Cav1_ sc9_I28C-G464C
[14] = molecular target: RB94 sc9 DS-CAV1 N183GC-N428C L373R Long K226L
[15] = molecular target: 391-2-DS-Cav1-sc9deleteFS 99C-362C
391-2-DSCav1- F-SC_7R = molecular target: 391-2-DSCav1- F-SC_7R
[16] = molecular target: 391-2-DS-Cav1_ sc9_T449C-V459C
[17] = molecular target: RB94 site 0 hRSV bovSurf DS-Cav1 Long FdPL
[18] = molecular target: 391-2-site 0 hRSV DSCav1-BZGJ9 Long
[19] = molecular target: 391-2-DS-Cav1-BZGJ9 Long K226L
391-2wt-F_SC_11R = molecular target: 391-2wt-F_SC_11R
[20] = molecular target: sc9-10_DS-CAV1_bRSV(RB94)_Fd_pm1_fp1_ig1
[21] = molecular target: 391-2-DS-Cav1_ sc9_S485C-A490C
391-2_DS-Cav1-tzsc7 = molecular target: 391-2_DS-Cav1-tzsc7
[22] = molecular target: 391-2-DS-Cav1_ sc9_I395C-A490C
[23] = molecular target: sc9-10_DS-CAV1_bRSV(RB94)_Fd_hp2_fp1_ig1
391-2-DS-Cav1-IP-4 = molecular target: 391-2-DS-Cav1-IP-4
[24] = molecular target: 391-2-DS-Cav1-sc9deleteFS 98C-362C
[25] = molecular target: 391-2-DS-Cav1-sc9 100C-361C
[26] = molecular target: RB94 hu/bov DS-Cav1 Long FdPL
[27] = molecular target: RB94 site 0 hRSV DS-Cav1-BZGJ9 Long FdPL
[28] = molecular target: RB94 sc9 DS-CAV1 A149C-Y458C L373R
[29] = molecular target: 391-2-DS-Cav1-sc9deleteFS 99C-361C
391-2-DS-Cav1-BZGJ9_gyc7 = molecular target: 391-2-DS-Cav1-BZGJ9_gyc7
391-2_DS-Cav1-tzsc5 = molecular target: 391-2_DS-Cav1-tzsc5
[30] = molecular target: sc9-10_DS-CAV1_bRSV(RB94)_Fd_hp2_ig1
[31] = molecular target: 391-2-DS-Cav1_ sc9_S398C-S485C
391-2-DS-Cav1-BZGJ9 Long = molecular target: 391-2-DS-Cav1-BZGJ9 Long

Substance: motavizumab (antibody)
- ELISA binding value (391-2wt_F-SC_12R core): 0.821
- ELISA binding value [1]: 2.21
- ELISA binding value [2]: 0.748
- ELISA binding value [3]: 0.486
- ELISA binding value [4]: 1.7
- ELISA binding value [5]: 1.21
- ELISA binding value [6]: 0.393
- ELISA binding value [7]: 0.603
- ELISA binding value [8]: 2.42
- ELISA binding value [9]: 0.488
- ELISA binding value [10]: 0.503
- ELISA binding value [11]: 0.477
- ELISA binding value [12]: 1.8
- ELISA binding value [13]: 0.569
- ELISA binding value [14]: 0.633
- ELISA binding value [15]: 0.612
- ELISA binding value (391-2-DSCav1- F-SC_7R): 0.649
- ELISA binding value [16]: 0.49
- ELISA binding value [17]: 1.86
- ELISA binding value [18]: 2.08
- ELISA binding value [19]: 1.94
- ELISA binding value (391-2wt-F_SC_11R): 1.79
- ELISA binding value [20]: 1.81
- ELISA binding value [21]: 0.595
- ELISA binding value (391-2_DS-Cav1-tzsc7): 1.99
- ELISA binding value [22]: 0.891
- ELISA binding value [23]: 2.18
- ELISA binding value (391-2-DS-Cav1-IP-4): 0.933
- ELISA binding value [24]: 0.589
- ELISA binding value [25]: 1.63
- ELISA binding value [26]: 1.44
- ELISA binding value [27]: 2.26
- ELISA binding value [28]: 0.564
- ELISA binding value [29]: 0.606
- ELISA binding value (391-2-DS-Cav1-BZGJ9_gyc7): 0.977
- ELISA binding value (391-2_DS-Cav1-tzsc5): 1.57
- ELISA binding value [30]: 2.52
- ELISA binding value [31]: 0.487
- ELISA binding value (391-2-DS-Cav1-BZGJ9 Long): 1.55
